The chains are these.
B1: glmS ribozyme (parent)
chain: AUAAAAGCGCCAGAACUACAGAAAUGUAGUUGACGAGGAGGAGGUUUAUCGAAUUUUCGGCGGAUGCCUCCAAA

Settings in all cases: with glucosamine-6-phosphate
The variants in series [1] derive from B1. The series can be described thus: self-cleavage kobs at 40 uM GlcN6P; higher = faster cleavage; RNA array. An outline of the steps: (§1)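 kcat and KM were obtained from weighted Michaelis–Menten fits across concentrations of kobs values. Those came from one- or two-exponential decay fits to per-tile medians normalised to baseline and to non-cleaving reference variants. The variants were barcoded ribozymes transcribed in situ by E. coli RNA polymerase on sequenced MiSeq chips and tracked through a hybridised Cy3 probe at 37 °C, with 40 μM to 10 mM glucosamine-6-phosphate in HEPES/KCl/Mg(OAc)2 buffer flowed in.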

Series [2] covers variants of B1. The series can be described thus: self-cleavage kobs at 640 uM GlcN6P; higher = faster cleavage; RNA array. The gist of the method: as §1
The variants in series [3] derive from B1. The series can be described thus: self-cleavage kobs at 160 uM GlcN6P; higher = faster cleavage; RNA array. The gist of the method:
as §1

Variants of B1 are the subject of series [4]. The series can be described thus: self-cleavage kobs at 10000 uM GlcN6P; higher = faster cleavage; RNA array. An outline of the steps:
as §1

In series [5] the parent is B1. Description: self-cleavage kobs at 2500 uM GlcN6P; higher = faster cleavage; RNA array. An outline of the steps:
as §1

± gives the standard error. Variants at the floor of the assay were thinned out.

G32U G59U C71G: in series [1], the “self-cleavage kobs at 40 uM GlcN6P” value was < 1e-05 s⁻¹. Moreover, the “self-cleavage kobs at 640 uM GlcN6P” value in series [2] was < 1e-05 s⁻¹.

For C11G G38U, the “self-cleavage kobs at 40 uM GlcN6P” value in series [1] is < 1e-05 s⁻¹. Also, in series [3], the “self-cleavage kobs at 160 uM GlcN6P” value was < 1e-05 s⁻¹. The “self-cleavage kobs at 640 uM GlcN6P” value in series [2] was < 1e-05 s⁻¹. Moreover, the “self-cleavage kobs at 10000 uM GlcN6P” value in series [4] is < 1e-05 s⁻¹.

C10U C34G G41U A52U C58A G66A C71A: in series [1], the “self-cleavage kobs at 40 uM GlcN6P” value is < 1e-05 s⁻¹.

For the variant A6G C50A U65G, the “self-cleavage kobs at 40 uM GlcN6P” value in series [1] is < 1e-05 s⁻¹.

Regarding G32C U56C, in series [1], the “self-cleavage kobs at 40 uM GlcN6P” value is < 1e-05 s⁻¹. In series [3], the “self-cleavage kobs at 160 uM GlcN6P” value is < 1e-05 s⁻¹. For the same variant, the “self-cleavage kobs at 640 uM GlcN6P” value in series [2] is < 1e-05 s⁻¹.

On to A36G U65G, for which the “self-cleavage kobs at 40 uM GlcN6P” value in series [1] was < 1e-05 s⁻¹. Also, the “self-cleavage kobs at 160 uM GlcN6P” value in series [3] is < 1e-05 s⁻¹. In series [2], the “self-cleavage kobs at 640 uM GlcN6P” value is < 1e-05 s⁻¹. For the same variant, the “self-cleavage kobs at 2500 uM GlcN6P” value in series [5] is < 1e-05 s⁻¹. In series [4], the “self-cleavage kobs at 10000 uM GlcN6P” value is < 1e-05 s⁻¹.

Take C10G U55G: in series [1], the “self-cleavage kobs at 40 uM GlcN6P” value is < 1e-05 s⁻¹.

For the variant U69C C71G, the “self-cleavage kobs at 40 uM GlcN6P” value in series [1] worked out at 3.93e-05 ± 1.3e-05 s⁻¹. Also, the “self-cleavage kobs at 160 uM GlcN6P” value in series [3] amounted to 0.000225 ± 0.00011 s⁻¹. Further, the “self-cleavage kobs at 640 uM GlcN6P” value in series [2] is 6.76e-05 ± 1.6e-05 s⁻¹. The “self-cleavage kobs at 2500 uM GlcN6P” value in series [5] was determined as 7.01e-05 ± 1.5e-05 s⁻¹. The “self-cleavage kobs at 10000 uM GlcN6P” value in series [4] is 6.79e-05 ± 9e-06 s⁻¹.

Take G29U A42U: the “self-cleavage kobs at 40 uM GlcN6P” value in series [1] was < 1e-05 s⁻¹. In series [2], the “self-cleavage kobs at 640 uM GlcN6P” value was < 1e-05 s⁻¹. The “self-cleavage kobs at 10000 uM GlcN6P” value in series [4] was 2.15e-05 ± 1.1e-05 s⁻¹.

Consider A12U G41C C58A, for which the “self-cleavage kobs at 40 uM GlcN6P” value in series [1] was < 1e-05 s⁻¹. The “self-cleavage kobs at 2500 uM GlcN6P” value in series [5] was < 1e-05 s⁻¹. In series [4], the “self-cleavage kobs at 10000 uM GlcN6P” value is < 1e-05 s⁻¹.

For A15C U30A G41C U45A C58U, in series [1], the “self-cleavage kobs at 40 uM GlcN6P” value was < 1e-05 s⁻¹.

For the variant A14C U30G C50A G60U G63U, the “self-cleavage kobs at 40 uM GlcN6P” value in series [1] was < 1e-05 s⁻¹. Further, the “self-cleavage kobs at 10000 uM GlcN6P” value in series [4] is < 1e-05 s⁻¹.

C11G G32C G38A A42C G60C: in series [1], the “self-cleavage kobs at 40 uM GlcN6P” value is < 1e-05 s⁻¹. Further, the “self-cleavage kobs at 2500 uM GlcN6P” value in series [5] is < 1e-05 s⁻¹.

For the variant G38C U56A, in series [1], the “self-cleavage kobs at 40 uM GlcN6P” value is < 1e-05 s⁻¹. Moreover, in series [5], the “self-cleavage kobs at 2500 uM GlcN6P” value was < 1e-05 s⁻¹.

In the case of G43U C68A, in series [1], the “self-cleavage kobs at 40 uM GlcN6P” value came to 0.00235 ± 0.00036 s⁻¹. For the same variant, in series [3], the “self-cleavage kobs at 160 uM GlcN6P” value is 0.00333 ± 0.00054 s⁻¹. Besides, the “self-cleavage kobs at 640 uM GlcN6P” value in series [2] was 0.0194 ± 0.0032 s⁻¹. The “self-cleavage kobs at 2500 uM GlcN6P” value in series [5] is 0.0175 ± 0.005 s⁻¹. Moreover, the “self-cleavage kobs at 10000 uM GlcN6P” value in series [4] worked out at 0.0761 ± 0.024 s⁻¹.

As for G7U A14U, the “self-cleavage kobs at 40 uM GlcN6P” value in series [1] was < 1e-05 s⁻¹. Further, the “self-cleavage kobs at 160 uM GlcN6P” value in series [3] is < 1e-05 s⁻¹. Further, the “self-cleavage kobs at 640 uM GlcN6P” value in series [2] was < 1e-05 s⁻¹. The “self-cleavage kobs at 10000 uM GlcN6P” value in series [4] was < 1e-05 s⁻¹.

Consider C34A G40U G66A, for which the “self-cleavage kobs at 40 uM GlcN6P” value in series [1] is < 1e-05 s⁻¹. For the same variant, the “self-cleavage kobs at 160 uM GlcN6P” value in series [3] was < 1e-05 s⁻¹. In addition, the “self-cleavage kobs at 10000 uM GlcN6P” value in series [4] is < 1e-05 s⁻¹.

As to G7A C8G, the “self-cleavage kobs at 40 uM GlcN6P” value in series [1] was < 1e-05 s⁻¹. In addition, the “self-cleavage kobs at 160 uM GlcN6P” value in series [3] was < 1e-05 s⁻¹. Further, the “self-cleavage kobs at 640 uM GlcN6P” value in series [2] is < 1e-05 s⁻¹. Besides, the “self-cleavage kobs at 2500 uM GlcN6P” value in series [5] is < 1e-05 s⁻¹. In addition, the “self-cleavage kobs at 10000 uM GlcN6P” value in series [4] is < 1e-05 s⁻¹.

G44A A48U: the “self-cleavage kobs at 40 uM GlcN6P” value in series [1] was < 1e-05 s⁻¹. For the same variant, the “self-cleavage kobs at 160 uM GlcN6P” value in series [3] was < 1e-05 s⁻¹. The “self-cleavage kobs at 640 uM GlcN6P” value in series [2] was < 1e-05 s⁻¹.

Take G40A U46G: the “self-cleavage kobs at 40 uM GlcN6P” value in series [1] is 4.29e-05 ± 1.2e-05 s⁻¹. Moreover, the “self-cleavage kobs at 2500 uM GlcN6P” value in series [5] was 0.000841 ± 0.00023 s⁻¹. Moreover, the “self-cleavage kobs at 10000 uM GlcN6P” value in series [4] came out at 0.00152 ± 0.00029 s⁻¹.

As to C11U A64U, the “self-cleavage kobs at 40 uM GlcN6P” value in series [1] is < 1e-05 s⁻¹. Besides, the “self-cleavage kobs at 160 uM GlcN6P” value in series [3] was < 1e-05 s⁻¹. For the same variant, the “self-cleavage kobs at 640 uM GlcN6P” value in series [2] was < 1e-05 s⁻¹.

As to G13A C50G U55G U57G G62U, the “self-cleavage kobs at 40 uM GlcN6P” value in series [1] turned out to be 8.98e-05 ± 2.1e-05 s⁻¹. In addition, the “self-cleavage kobs at 10000 uM GlcN6P” value in series [4] turned out to be 5.32e-05 ± 1.5e-05 s⁻¹.

(Values after the supplement of paper PMC7125110.)
